Assay: Dosimetry: absorbed organ dose from biodistribution data (MIRD scheme, RADAR mouse phantom)
Type: in vivo
Details: male
Description: Data obtained during the in vivo biodistribution studies were used to calculate the absorbed dose for each organ according to the MIRD-scheme. The time integrated activity concentration coefficients were determined by fitting exponential curves to the activity concentration data points at 1, 4, 24, 48, 96, and 168 h p.i. and integrating these curves over time. The least squares fitting analysis was performed with GraphPad Prism software. The S-values for lutetium-177 were based on the 24 g realistic RADAR mouse phantom. The standard organ weights of this model were used to convert from activity concentration to activity. With this model, the absorbed dose in most organs could be calculated. S-values for organs not included in the mouse model, such as adrenal glands and prostate, were determined with the spherical node model within the Olinda/EXM code.
The absorbed doses determined from the biodistribution assay were extrapolated to the dose the animals received during the radiotoxicity study. Here, the animals received 3 consecutive injections with a 7-day interval.

[1] = 3× 40 MBq/400 pmol, extrapolated cumulative
[2] = 3× 80 MBq/800 pmol, extrapolated cumulative
[3] = 3× 120 MBq/1200 pmol, extrapolated cumulative

In the case of CC(C)CC(CC(C)C)NC(=O)[C@H](Cc1cnc[nH]1)NC(=O)CNC(=O)[C@@H](NC(=O)[C@H](C)NC(=O)[C@H](Cc1c[nH]c2ccccc12)NC(=O)[C@H](CCC(N)=O)NC(=O)[C@@H](Cc1ccccc1)NC(=O)COCC(=O)Nc1ccc(CNC(=O)CN2CCN(CC(=O)O)CCN(CC(=O)O)CCN(CC(=O)O)CC2)cc1)C(C)C [[^177Lu]Lu-NeoB, metal not drawn], the Absorbed dose brain (1× 120 MBq/1200 pmol) is reported as 0.15 Gy, the “Absorbed dose colon wall” value (1× 120 MBq/1200 pmol) is reported as 0.93 Gy and the “Absorbed dose heart wall” value (1× 120 MBq/1200 pmol) is reported as 0.68 Gy. For the same molecule, the Absorbed dose kidneys (1× 120 MBq/1200 pmol) was 3.21 Gy, the Absorbed dose liver (1× 120 MBq/1200 pmol) was 5.61 Gy and the Absorbed dose lungs (1× 120 MBq/1200 pmol) was 3.91 Gy. The “Absorbed dose mammary fat pad” value (1× 120 MBq/1200 pmol) was 0.49 Gy, the “Absorbed dose osteogenic cells” value (1× 120 MBq/1200 pmol) was 0.12 Gy and the Absorbed dose pancreas (1× 120 MBq/1200 pmol) was 1.54 Gy. The “Absorbed dose prostate gland” value (1× 120 MBq/1200 pmol) was 0.37 Gy, the “Absorbed dose small intestine” value (1× 120 MBq/1200 pmol) was 0.94 Gy and the Absorbed dose spleen (1× 120 MBq/1200 pmol) was 1.35 Gy. The “Absorbed dose stomach wall” value (1× 120 MBq/1200 pmol) was 1.38 Gy, the Absorbed dose testes (1× 120 MBq/1200 pmol) was 0.08 Gy and the “Absorbed dose total body” value (1× 120 MBq/1200 pmol) was 0.66 Gy. The “Absorbed dose urinary bladder” value (1× 120 MBq/1200 pmol) was 0.08 Gy, the “Absorbed dose adrenal glands” value [1] was 1.74 Gy and the Absorbed dose brain [1] was 0.15 Gy. For the same molecule, the “Absorbed dose colon wall” value [1] was 2.43 Gy, the “Absorbed dose heart wall” value [1] was 0.75 Gy and the Absorbed dose kidneys [1] was 6.00 Gy. The Absorbed dose liver [1] was 6.33 Gy, the Absorbed dose lungs [1] was 1.05 Gy and the “Absorbed dose mammary fat pad” value [1] was 0.81 Gy. For the same molecule, the “Absorbed dose osteogenic cells” value [1] was 0.09 Gy, the Absorbed dose pancreas [1] was 6.69 Gy and the “Absorbed dose prostate gland” value [1] was 1.05 Gy. For the same molecule, the “Absorbed dose small intestine” value [1] was 2.40 Gy, the Absorbed dose spleen [1] was 1.50 Gy and the “Absorbed dose stomach wall” value [1] was 4.50 Gy. The Absorbed dose testes [1] was 0.06 Gy, the “Absorbed dose total body” value [1] was 0.93 Gy and the “Absorbed dose urinary bladder” value [1] was 0.06 Gy. For the same molecule, the “Absorbed dose adrenal glands” value [2] was 1.62 Gy, the Absorbed dose brain [2] was 0.36 Gy and the “Absorbed dose colon wall” value [2] was 3.63 Gy. The “Absorbed dose heart wall” value [2] was 1.38 Gy, the Absorbed dose kidneys [2] was 9.75 Gy and the Absorbed dose liver [2] was 9.84 Gy. For the same molecule, the Absorbed dose lungs [2] was 2.61 Gy, the “Absorbed dose mammary fat pad” value [2] was 0.69 Gy and the “Absorbed dose osteogenic cells” value [2] was 0.18 Gy. For the same molecule, the Absorbed dose pancreas [2] was 6.93 Gy, the “Absorbed dose prostate gland” value [2] was 2.04 Gy and the “Absorbed dose small intestine” value [2] was 3.63 Gy. The Absorbed dose spleen [2] was 2.16 Gy, the “Absorbed dose stomach wall” value [2] was 4.50 Gy and the Absorbed dose testes [2] was 0.12 Gy. The “Absorbed dose total body” value [2] was 1.41 Gy, the “Absorbed dose urinary bladder” value [2] was 0.12 Gy and the “Absorbed dose adrenal glands” value [3] was 1.99 Gy. For the same molecule, the Absorbed dose brain [3] was 0.44 Gy, the “Absorbed dose colon wall” value [3] was 2.80 Gy and the “Absorbed dose heart wall” value [3] was 2.03 Gy. It also gave an Absorbed dose kidneys [3] of 9.62 Gy, an Absorbed dose liver [3] of 16.84 Gy and an Absorbed dose lungs [3] of 11.72 Gy. For the same molecule, the “Absorbed dose mammary fat pad” value [3] was 1.47 Gy, the “Absorbed dose osteogenic cells” value [3] was 0.37 Gy and the Absorbed dose pancreas [3] was 4.61 Gy. The “Absorbed dose prostate gland” value [3] was 1.10 Gy, the “Absorbed dose small intestine” value [3] was 2.81 Gy and the Absorbed dose spleen [3] was 4.05 Gy. The “Absorbed dose stomach wall” value [3] was 4.14 Gy, the Absorbed dose testes [3] was 0.23 Gy and the “Absorbed dose total body” value [3] was 1.97 Gy. For the same molecule, the “Absorbed dose urinary bladder” value [3] was 0.24 Gy.
